Tests used:
[1] = biological target: F1Fo ATP synthase from E. coli, labeled with ATTO 594 (E. coli) (UniProt P0ABB4)
[2] = biological target: F1Fo ATP synthase from E. coli, labeled with ATTO 594 (E. coli) (UniProt P0ABB4); remark: listed apart in the source

Sequence of UniProt P0ABB4 (P0ABB4 whole entry, looked up): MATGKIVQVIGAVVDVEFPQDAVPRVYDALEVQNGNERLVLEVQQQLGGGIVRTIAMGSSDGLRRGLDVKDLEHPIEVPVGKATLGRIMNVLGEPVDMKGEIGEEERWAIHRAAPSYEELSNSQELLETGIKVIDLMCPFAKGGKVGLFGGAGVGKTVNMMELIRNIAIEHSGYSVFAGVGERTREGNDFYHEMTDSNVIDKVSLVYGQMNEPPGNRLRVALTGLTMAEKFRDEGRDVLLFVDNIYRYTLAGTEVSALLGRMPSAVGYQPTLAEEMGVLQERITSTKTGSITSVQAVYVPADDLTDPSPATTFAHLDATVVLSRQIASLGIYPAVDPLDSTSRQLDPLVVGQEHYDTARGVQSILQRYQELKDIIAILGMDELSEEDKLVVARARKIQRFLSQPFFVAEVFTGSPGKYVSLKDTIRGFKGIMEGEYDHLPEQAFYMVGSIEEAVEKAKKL

A coupled activity (ATP-synthesis rate driven by proton pumping of cyt. bo3; luciferin/luciferase luminescence) in 100 nm DOPC vesicles, relative to unlabeled proteins [1] of 5 fold and a normalized ATP-synthesis rate in 100 nm DOPC:DOPG vesicles, 0-40% DOPG, relative to 100% DOPC; value at 60% DOPC [2] of 60% were found for “cytochrome bo3 (ubiquinol oxidase) from E. coli, labeled with ATTO 647N (complex)” in this work.

With “cytochrome bo3 (ubiquinol oxidase) from E. coli, labeled with Abberior STAR 635 (complex)” the coupled activity (ATP-synthesis rate driven by proton pumping of cyt. bo3) in 100 nm DOPC vesicles, increase relative to unlabeled proteins [1] was < 2 fold.

From article PMC5462737
